# Changes are numbered by the printed parent chain.
# T1: human FcγRIIa-H (the high-affinity H131 variant) (human, UniProt P12318 34-317)
# T1 sequence (looked up): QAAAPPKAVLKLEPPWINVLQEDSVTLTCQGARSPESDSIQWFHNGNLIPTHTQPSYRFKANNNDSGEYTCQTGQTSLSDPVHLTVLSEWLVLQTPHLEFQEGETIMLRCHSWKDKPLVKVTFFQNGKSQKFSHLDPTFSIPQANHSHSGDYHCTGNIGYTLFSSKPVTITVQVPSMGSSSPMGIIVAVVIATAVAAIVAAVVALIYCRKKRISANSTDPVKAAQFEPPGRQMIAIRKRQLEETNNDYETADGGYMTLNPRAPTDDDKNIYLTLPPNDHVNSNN
# B1: AIP-169752 (antibody, V domains shown)
# VH: EVQLVESGGALVKPGGSLRLSCAASGFTFSKAWMSWVRQAPGKGLEWVGRIKSVTDGETTDYAAPVKGRFTISRDDSKSTLYLQMNSLKTEDTAVYYCTSSFCCRGGGSCPSHDTSYCGGQYKSYYYMDVWGKGTTVTVSS
# VL: QSVLTQPPSASGTPGQRVTISCSGSSSNIGSSSVSWYQQLPGTAPKLLIYKNNQRPSGVPDRFSGSKSGTSASLAISGLRSEDEADYYCSTWDDSLSVRVFGGGTKLTVL
# B2: AIP-163723 (antibody, V domains shown)
# VH: EVQLVESGGALVKPGGSLRLSCAASGFTFSKAWMSWVRQAPGKGLEWVGRIKSVTDGETTDYAAPVKGRFTISRDDSKSTLYLQMNSLKTEDTAVYYCTSSFCCRGGSCPSHDTSYCGGQKSYYYMDVWGKGTTVTVSS
# VL: B1 VL
# B3: AIP-125646 (antibody, V domains shown)
# VH: B2 VH with G119Q, Q120Y
# VL: B1 VL
# B4: AIP-182606 (antibody, V domains shown)
# VH: B2 VH with C103S, C117G, G119Q, Q120Y
# VL: B1 VL
# B5: AIP-194564 (antibody, V domains shown)
# VH: B1 VH with G106S
# VL: B1 VL
# B6: AIP-131762 (antibody, V domains shown)
# VH: EVQLVESGGALVKPGGSLRLSCAASGFTFSKAWMSWVRQAPGKGLEWVGRIKSVTDGETTDYAAPVKGRFTISRDDSKSTLYLQMNSLKTEDTAVYYCTSSFCGGPSHDTSYCGGQYKSYYYMDVWGKGTTVTVSS
# VL: B1 VL
# B7: AIP-167295 (antibody, V domains shown)
# VH: B2 VH with K121Y
# VL: B1 VL
# B8: AIP-114111 (antibody, V domains shown)
# VH: EVQLVESGGALVKPGGSLRLSCAASGFTFSKAWMSWVRQAPGKGLEWVGRIKSVTDGETTDYAAPVKGRFTISRDDSKSTLYLQMNSLKTEDTAVYYCTSSFCCRGGSCPSHDTSYCGGQYKSSYYYMDVWGKGTTVTVSS
# VL: B1 VL
# B9: AIP-185680 (antibody, V domains shown)
# VH: EVQLVESGGALVKPGGSLRLSCAASGFTFSKAWMSWVRQAPGKGLEWVGRIKSVTDGETTDYAAPVKGRFTISRDDSKSTLYLQMNSLKTEDTAVYYCTSSFCCRGGGGSCPSHDTSYCGGQYKSYYYMDVWGKGTTVTVSS
# VL: B1 VL
# B10: AIP-107388 (antibody, V domains shown)
# VH: B8 VH with Q120G, Y121Q, K122Y, S123K
# VL: B1 VL
# B11: AIP-191692 (antibody, V domains shown)
# VH: EVQLVESGGALVKPGGSLRLSCAASGFTFSKAWMSWVRQAPGKGLEWVGRIKSVTDGETTDYAAPVKGRFTISRDDSKSTLYLQMNSLKTEDTAVYYCTSSFCCRGGSCPSHDTSYCGGGSGYKSYYYMDVWGKGTTVTVSS
# VL: B1 VL
# B12: AIP-145328 (antibody, V domains shown)
# VH: EVQLVESGGALVKPGGSLRLSCAASGFTFSKAWMSWVRQAPGKGLEWVGRIKSVTDGETTDYAAPVKGRFTISRDDSKSTLYLQMNSLKTEDTAVYYCTSSFCCRGGSGGSCPSHDTSYCGGQYKSYYYMDVWGKGTTVTVSS
# VL: B1 VL
# Biological target: T1, human FcγRIIa-H (the high-affinity H131 …)
# Test: cell-based or functional assay
Avg ΔActivity Rank,EC50 [nM],Fold ΔActivity,Binder
2,,,B1
2,,,B2
2.5,446,0.75,B3
2,,,B4
2,472,0.58,B5
1,,,B6
2,,,B7
2,258,0.55,B8
1,,,B9
2,,,B10
2,,,B11
2,,,B12
